What was measured:
CD-4+lymphocytes = experiment: Intracellular cytokine staining of antigen-stimulated CD4+ lymphocytes of hookworm-infected residents; type: cell-based, human; conditions: CD4+ lymphocytes from whole blood of hookworm infected residents
Procedure: The underlying immunological mechanisms accounting for this observation has been investigated. Shown in FIGS. 40 and 41, CD-4+lymphocytes were gated from the whole blood of hookworm infected residents and stimulated with either L3 soluble hookworm antigen FIG. 40) or Pichia-expressed recombinant Na-ASP-1 (FIG. 41). Host cytokine production was measured by an intracellular cytokine staining technique. […] IL-10 is a strong immunomodulator with downregulatory, anti-inflammatory properties, and IL-4 is associated with antibody production and TH-2 type immunity.

[1] = test system: antigen-specific canine IgG1 antibodies; experiment: ELISA of antigen-specific canine IgG1, trial with Ac-TMP, Ac-AP, Ac-APR-1; type: in vivo, dog; conditions: five of the six vaccinated dogs
Procedure: Canine Immunizations: A four-dose immunization schedule was selected (Table II). Each of the dogs was vaccinated by subcutaneous immunization at two sites in the shoulder, through a 22 gauge needle. The volume of the injections ranged between 0.5 and 1.0 ml. Four doses of each antigen were administered over a 38-day period. The first two injections (primary immunization) were administered on days 1 and 4, and the final two immunizations (boosts) were administered on days 34 and 38. Dogs in the control group were injected with an equivalent amount of alum.
Canine antibody measurements: Blood was collected weekly by venipuncture and the serum was separated and stored frozen at −20° C. Antigen-specific canine IgG1 antibodies were measured by indirect enzyme-linked immunosorbent assay (ELISA). Other IgG subclasses were not measured due to the unavailability of suitable high-quality canine-specific reagents. The optimal concentrations of sample sera and enzyme-linked detection antibody were determined by checkerboard titrations. Optimal antigen concentrations were determined by using a saturation technique. […] The plates were incubated in the dark for 30 minutes and read at a wavelength of 405 nm on a SpectraMax 240 PC reader (Molecular Devices, Sunnyvale, Calif.) with SOFTmax Pro software (Molecular Devices, Sunnyvale, Calif.). […]

A. caninum = experiment: Canine vaccine trial with Ac-TMP, Ac-AP, Ac-APR-1, oral challenge with 400 A. caninum L3; type: in vivo, dog
From the text: Study dogs and animal husbandry: Following protocol approval by The George Washington University Institutional Animal Care and Use Committee (IACUC), purpose bred, parasite naïve, male beagles 8±1 week of age were purchased, identified by ear tattoo, and maintained in the AALAC (Association for Assessment and Accreditation of Laboratory Animal Care) accredited George Washington University Animal Research Facility. The dogs were housed in a room dedicated for the study, at a room temperature of 70±4° F., with 10-15 air changes per hour comprised of 100 percent fresh air, and 12 hr light cycles alternating with 12 hr dark cycles. The airflow and timer functions were monitored daily. The dogs were fed on a diet of Teklad Certified Dog Chow #8727, supplemented with a canned soft diet in the event of anorexia. The drinking water was piped from a filter plant and delivered via automatc water system; water analysis was performed by the U.S. Army Corps of Engineers. Water from the facilities automatic system is cultured for bacteria and fungi annually. The pens were flushed daily and sanitized every two weeks. Dogs within a given study group were permitted to live together and socialize prior to the hookworm larval challenge, but were caged individually post-infection. All dogs were quarantined for approximately one week before beginning the vaccine trial. Prior to vaccination a complete blood count (CBC), serum chemistries, and a pre-vaccination serum sample were obtained.
Vaccine study design and sample size: The vaccine trial was designed to test three different antigens, each formulated with alum, as well as an alum adjuvant control. A total of 24 dogs were randomly assigned into four groups comprised of 6 dogs each. The canine sample size was selected on the ability to detect a 40-50 percent reduction in the numbers of adult hookworms in the small intestines of the vaccinated group relative to control dogs, at a statistical power of 80 percent (alpha=0.05, two-tailed). The data were derived from the mean and standard deviation of adult hookworms previously recovered from age-matched dogs infected with 400 A. caninum L3 (Hotez et al, 2002).
Recombinant Antigens: Each group of 6 dogs was vaccinated with recombinant hookworm proteins expressed as fusion proteins either in Escherichia coli or in an insect cell line with baculovirus. Ac-AP (Cappello et al, 1995; 1996) and Ac-TMP, were expressed in E. coli as pET 28 (Novagen) fusion proteins containing a polyhistidine tag (Cappello et al, 1996). Ac-APR-1 (Harrop et al, 1996) was expressed in a baculovirus pBacPAK6 vector (Clontech), modified to contain a polyhistidine-encoding sequence and additional restriction enzyme sites (Brindley et al, 2001). Recombinant Ac-AP and Ac-TMP fusion proteins were then purified by nickel affinity chromatography, followed by a second step of purification. In the case of Ac-AP (Cappello et al, 1995; 1996), the recombinant protein was purified by mono-S (Amersham-Pharmacia) ion exchange chromatography, while Ac-TMP (Zhan et al, 2002) was purified by superdex 75 (Amersham-Pharmacia) gel filtration chromatography. Ac-APR-1 (Harrop et al, 1996) was purified by substrate affinity chromatography using pepstatin agarose (Brindley et al, 2001). The antigen stock protein concentration was determined by Pierce Micro BCA assay (Pierce Chemicals) or by the absorbance of the sample at […] using an extinction coefficient that was calculated from the deduced amino acid composition of the fusion protein. The amount of alum adsorbed protein in each dose of antigen was measured by the Pierce Micro BCA assay using a bovine serum albumin standard. The relative purity of each of the antigens relative to contaminating E. coli or insect cell proteins was determined by analysis on sodium dodecyl sulfate polyacrylamide gel electrophoresis (SDS-PAGE). […]

[2] = single dog with positive immune response

Molecule | host cytokine production (CD-4+lymphocytes) | immunological response to the antigen [1] | % Decrease of adult hookworms in the small intestines relative to alum-injected dogs (A. caninum; group) [%] | % Increase of adult hookworms in the colons relative to alum-injected dogs (A. caninum; group) [%] | adult A. caninum hookworms in the colons, Median (A. caninum; group median, alum control 4) | adult hookworms in the small intestines, Median (A. caninum; group median, alum control 180) | small intestine to colon hookworm burden ratio (A. caninum; single dog with anti-Ac-AP antibody response) | % Decrease of adult hookworms in the small intestine relative to alum-injected dogs (A. caninum; [2]) [%] | % Increase of adult hookworms in the colon relative to alum-injected dogs (A. caninum; [2]) [%] | adult A. caninum hookworms in the colon, Mean (A. caninum; [2]) | adult A. caninum hookworms in the colon, Median (A. caninum; [2]) | adult hookworms in the small intestine, Mean (A. caninum; [2]) | adult hookworms in the small intestine, Median (A. caninum; [2])
Na-ASP-1: Necator americanus secreted protein antigen, SEQ ID NO: 2; Pichia-expressed recombinant (protein, listed as Necator americanus) MFSPVVVSVVFTIAFCNASPARDSFGCSNSGITDSDRQAFLDFHNNARRRVAKGLEDSNSGKLNPAKNMYKLSWDCAMEQQLQDAIQSCPSGFAGIQGVAQNTMSWSSSGGYPDPSVKIEPTLSGWWSGAKKNGVGPDNKYTGGGLFAFSNMVYSETTKLGCAYKVCGTKLAVSCIYNGVGYITNQPMWETGQACQTGADCSTYKNSGCEDGLCTKGPDVPETNQQCPSNTGMTDSVRDTFLSVHNEFRSSVARGLEPDALGGNAPKAAKMLKMVYDCEVEASAIRHGNKCVYQHSHGEDRPGLGENIYKTSVLKFDKNKAAKQASQLWWNELKEYGVGPSNVLTTALWNRPNMQIGHYTQMAWDTTYKLGCAVVFCNDFTFGVCQYGPGGNYMGHVIYTMGQPCSQCSPGATCSVTEGLCSAP | high levels of IL-10 and IL-5, but not IL-4 |  |  |  |  |  |  |  |  |  |  |  | 
Ac-AP: A. caninum factor Xa inhibitor anticoagulant, SEQ ID NO: 54; * marks the single dog with positive immune response (protein, listed as Ancylostoma caninum) KAYPECGENEWLDDCGTQKPCEAKCNEEPPEEEDPICRSRGCLLPPACVCKDGFYRDTVIGDCVREEECDQHEIIHV |  | failed to respond immunologically | 4.5 | 183 | 14 | 170 | 1.6 | 34.7 | 1083 | 71 | 71 | 115 | 115

— patent publication US7303752B2, “Hookworm vaccine” (The George Washington University, priority 2001, dated 2007)
